From publication PMC7883444

Molecular target: HRD1 (HMG-CoA reductase degradation protein 1, synoviolin) (UniProt Q86TM6)
Test: anti-Myc co-IP, anti-Flag blot
Settings: reference: WT Flag-PFKP; sites S386

PFKP (platelet isoform of phosphofructokinase) (from UniProt Q01813) Flag-PFKP S386A
binding against the reference: stronger
